From US20170313764A1 (ACADEMISCH MEDISCH CENTRUM, published 2017)

Legend:
[1] = target: E1E2 of HCV isolate H77 with single mutation N532A (Hepatitis C virus genotype 1a, strain …, UniProt P27958 192-383; P27958 384-746); assay: ELISA, GNA-captured E1E2 lysate; EC50 wild type / EC50 mutant
[2] = target: E1E2 of HCV isolate H77 with single mutation N448A (Hepatitis C virus genotype 1a, strain …, UniProt P27958 192-383; P27958 384-746); assay: as above
[3] = target: E1E2 of HCV isolate H77 with single mutation V538A (Hepatitis C virus genotype 1a, strain …, UniProt P27958 192-383; P27958 384-746); assay: as above
[4] = target: E1E2 of HCV isolate H77 with single mutation T534A (Hepatitis C virus genotype 1a, strain …, UniProt P27958 192-383; P27958 384-746); assay: as above
[5] = target: E1E2 of HCV isolate H77 with single mutation N423A (Hepatitis C virus genotype 1a, strain …, UniProt P27958 192-383; P27958 384-746); assay: as above
[6] = target: E1E2 of HCV isolate H77 with single mutation D698A (Hepatitis C virus genotype 1a, strain …, UniProt P27958 192-383; P27958 384-746); assay: as above
[7] = target: E1E2 of HCV isolate H77 with single mutation S424A (Hepatitis C virus genotype 1a, strain …, UniProt P27958 192-383; P27958 384-746); assay: as above
[8] = target: E1E2 of HCV isolate H77 with single mutation L413A (Hepatitis C virus genotype 1a, strain …, UniProt P27958 192-383; P27958 384-746); assay: as above
[9] = target: E1E2 of HCV isolate H77 with single mutation G418A (Hepatitis C virus genotype 1a, strain …, UniProt P27958 192-383; P27958 384-746); assay: as above
[10] = target: E1E2 of HCV isolate H77 with single mutation N209A (in E1) (Hepatitis C virus genotype 1a, strain …, UniProt P27958 192-383; P27958 384-746); assay: as above
[11] = target: E1E2 of HCV isolate AMS.4d.20875969 (genotype 4d) (Hepatitis C virus genotype 4d); assay: cell-based or functional assay
[12] = target: E1E2 of HCV isolate AMS.2b.20876551.kloon21 (genotype 2b) (Hepatitis C virus genotype 2b); assay: cell-based or functional assay
[13] = target: E1E2 of HCV isolate H77 (genotype 1a), wild type (Hepatitis C virus genotype 1a, strain …, UniProt P27958 192-383; P27958 384-746); assay: cell-based or functional assay
[14] = target: E1E2 of HCV isolate AMS.3a.21071213 (genotype 3a) (Hepatitis C virus genotype 3a); assay: cell-based or functional assay
[15] = target: E1E2 of HCV isolate AMS.1b.20877857 (genotype 1b) (Hepatitis C virus genotype 1b); assay: cell-based or functional assay
[16] = target: E1E2 of HCV isolate UKN4.11.1 (genotype 4) (Hepatitis C virus genotype 4); assay: cell-based or functional assay
[17] = target: E1E2 of HCV isolate H77 with single mutation F442A (Hepatitis C virus genotype 1a, strain …, UniProt P27958 192-383; P27958 384-746); assay: ELISA, GNA-captured E1E2 lysate; EC50 wild type / EC50 mutant
[18] = target: E1E2 of HCV isolate H77 with single mutation T435A (Hepatitis C virus genotype 1a, strain …, UniProt P27958 192-383; P27958 384-746); assay: as above
[19] = target: E1E2 of HCV isolate H77 with single mutation Y485A (Hepatitis C virus genotype 1a, strain …, UniProt P27958 192-383; P27958 384-746); assay: as above
[20] = target: E1E2 of HCV isolate H77 with single mutation L441A (Hepatitis C virus genotype 1a, strain …, UniProt P27958 192-383; P27958 384-746); assay: as above
[21] = target: E1E2 of HCV isolate H77 with single mutation A439G (Hepatitis C virus genotype 1a, strain …, UniProt P27958 192-383; P27958 384-746); assay: as above
[22] = target: E1E2 of HCV isolate H77 with single mutation T526A (Hepatitis C virus genotype 1a, strain …, UniProt P27958 192-383; P27958 384-746); assay: as above

Binder	relative binding, mutant vs wild type [1] [%]	relative binding, mutant vs wild type [2] [%]	relative binding, mutant vs wild type [3] [%]	relative binding, mutant vs wild type [4] [%]	relative binding, mutant vs wild type [5] [%]	relative binding, mutant vs wild type [6] [%]	relative binding, mutant vs wild type [7] [%]	relative binding, mutant vs wild type [8] [%]	relative binding, mutant vs wild type [9] [%]	relative binding, mutant vs wild type [10] [%]	IC50, HCVpp neutralization [11] [µg/mL]	IC90, HCVpp neutralization [11] [µg/mL]	IC50, HCVpp neutralization [12] [µg/mL]	IC90, HCVpp neutralization [12] [µg/mL]	IC50, HCVpp neutralization [13] [µg/mL]	IC90, HCVpp neutralization [13] [µg/mL]	IC50, HCVpp neutralization [14] [µg/mL]	IC90, HCVpp neutralization [14] [µg/mL]	IC50, HCVpp neutralization [15] [µg/mL]	IC90, HCVpp neutralization [15] [µg/mL]	also measured
AT15-009 (antibody, V domains shown) VH: QVLLVQSGAEVKKPGSSVKVSCKASGGTFSTYAISWLRQAPGQGPEWMGGIVPMFGITNYAQHFQGRITITADKSTSTAYMELSSLGSEDTAVYFCARDLRSGGTFFSRGFDLWGPGTKVTVSS VL: EIVLTQSPGTLSLSPGERATLSCRASQSVSSSFLTWYQQKPGQAPRLLIFDASTRATGVPDRFSGSGSGTDFTLTISRLEPEDFGVYYCQQFDSSPTFGGGTKVEIK	118	113	126	93	111	116	106	112	112	105	–	–	–	–	–	–	–	–	–	–	–
AT15-012 (antibody, V domains shown, also called AT15-12) VH: QVQLVQSGAEVKKPGSSVKVSCKASGGNFNIFPITWVRQAPGQGLEWMGEIIPMLGTPEYAQKFQGRVTITADKSTGTAFMELSSLRSEDTAVYYCARTETTLPGTLFFVYYFHFWGQGTPVTVSS VL: EIVMTQSPVTLSVSPGERAILSCRASQSVSSSLAWYQQKPGQAPRLLIYGASTRATGVPARFSGSGSGTEFTLTISSVQSEDYAIYFCQQYNDRPPWTFGQGTKVEIK	125	129	103	95	132	117	67	132	124	99	–	–	–	–	–	–	–	–	–	–	–
AT12-007 (antibody, V domains shown) VH: QVQLEQSGAEVKKPGASVKVSCKVSGYTLTELSMHWVRQAPGKGLEWMGSFDPADGERLYAQKFQGRVIMSEDTSTDTAYMELSSLRSEDAAVYYCATAPRMTMFGVIMALDSWGQGTLVTVSS VL: DIQMTQSPSTLSASLGDRVTITCRASQNINKYLAWYQQKPGKAPKLLIYKASNLQSGVPSRFSGSGSGTDFILTISSLQPDDFATYYCQQYTTYSAWTFGQGTNVDIKR	–	–	–	–	–	–	–	–	–	–	> 50	> 50	0.26	9.41	2.67	> 50	1.42	21.7	0.04	0.5	IC50, HCVpp neutralization [16]: 1.87 µg/mL; IC90, HCVpp neutralization [16]: > 50 µg/mL; relative binding, mutant vs wild type [17]: < 10%; relative binding, mutant vs wild type [18]: 84%; relative binding, mutant vs wild type [19]: 114%; relative binding, mutant vs wild type [20]: < 10%; relative binding, mutant vs wild type [21]: 67%; relative binding, mutant vs wild type [22]: 31%
AT12-010 (antibody, V domains shown) VH: QLQLVQSGAEVKKPGSSVKVSCKASGGTFTSYAINWVRQVPGQGLEWMGEISPVFGTTHYAQKFQGRLKITADESADTAYMELSSLRSDDTAVYYCGRDRAPRLCSGGRCHSPPDHWGQGTLVTVSS VL: DIQMTQSPSSVSASVGDRVTITCRASQGFGNWLAWYQQKPGRAPKLLIFGASTLQNGVPSRFSGSASGTDFTLTITSLQPEDFATYYCLQTNTFPYTFGQGTKVEIKR	–	–	–	–	–	–	–	–	–	–	> 50	> 50	0.61	20.4	1.06	> 50	1.41	> 50	0.47	8.51	IC50, HCVpp neutralization [16]: > 50 µg/mL; IC90, HCVpp neutralization [16]: > 50 µg/mL; relative binding, mutant vs wild type [17]: < 10%; relative binding, mutant vs wild type [18]: 47%; relative binding, mutant vs wild type [19]: 107%; relative binding, mutant vs wild type [20]: < 10%; relative binding, mutant vs wild type [21]: 45%; relative binding, mutant vs wild type [22]: 29%
